Results as given in US20200390859A1 (NGM BIOPHARMACEUTICALS, published 2020).

Target: mouse FGFR4/β-klotho complex co-expressed in rat L6 myoblast cells (mouse, UniProt Q03142 17-799; Q99N32 1-1043)
Experiment: cell-based or functional assay

Sequence of mouse FGFR4/β-klotho complex co-expressed in rat L6 myoblast cells (Q03142 17-799, chain 1 of 2): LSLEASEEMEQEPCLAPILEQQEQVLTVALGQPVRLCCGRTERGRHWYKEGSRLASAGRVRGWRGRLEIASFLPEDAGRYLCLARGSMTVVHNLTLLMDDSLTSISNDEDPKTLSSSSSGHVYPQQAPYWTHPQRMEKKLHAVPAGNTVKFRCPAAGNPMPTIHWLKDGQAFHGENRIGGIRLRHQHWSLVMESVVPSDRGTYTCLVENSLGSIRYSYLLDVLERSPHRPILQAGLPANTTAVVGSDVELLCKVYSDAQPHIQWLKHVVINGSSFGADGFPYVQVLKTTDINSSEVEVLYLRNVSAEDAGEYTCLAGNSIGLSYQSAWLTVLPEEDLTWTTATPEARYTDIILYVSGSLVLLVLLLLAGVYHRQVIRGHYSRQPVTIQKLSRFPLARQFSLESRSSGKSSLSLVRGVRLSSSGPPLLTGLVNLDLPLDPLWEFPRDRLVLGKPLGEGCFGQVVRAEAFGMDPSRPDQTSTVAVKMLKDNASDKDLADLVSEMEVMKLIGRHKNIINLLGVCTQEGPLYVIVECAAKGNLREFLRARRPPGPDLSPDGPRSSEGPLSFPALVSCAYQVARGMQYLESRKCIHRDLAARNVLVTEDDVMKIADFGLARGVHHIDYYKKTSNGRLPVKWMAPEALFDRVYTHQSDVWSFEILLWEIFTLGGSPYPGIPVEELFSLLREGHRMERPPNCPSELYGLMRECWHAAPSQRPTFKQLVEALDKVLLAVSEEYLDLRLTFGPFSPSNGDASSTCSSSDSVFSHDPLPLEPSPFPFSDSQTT
Sequence of mouse FGFR4/β-klotho complex co-expressed in rat L6 myoblast cells (Q99N32 whole entry, chain 2 of 2): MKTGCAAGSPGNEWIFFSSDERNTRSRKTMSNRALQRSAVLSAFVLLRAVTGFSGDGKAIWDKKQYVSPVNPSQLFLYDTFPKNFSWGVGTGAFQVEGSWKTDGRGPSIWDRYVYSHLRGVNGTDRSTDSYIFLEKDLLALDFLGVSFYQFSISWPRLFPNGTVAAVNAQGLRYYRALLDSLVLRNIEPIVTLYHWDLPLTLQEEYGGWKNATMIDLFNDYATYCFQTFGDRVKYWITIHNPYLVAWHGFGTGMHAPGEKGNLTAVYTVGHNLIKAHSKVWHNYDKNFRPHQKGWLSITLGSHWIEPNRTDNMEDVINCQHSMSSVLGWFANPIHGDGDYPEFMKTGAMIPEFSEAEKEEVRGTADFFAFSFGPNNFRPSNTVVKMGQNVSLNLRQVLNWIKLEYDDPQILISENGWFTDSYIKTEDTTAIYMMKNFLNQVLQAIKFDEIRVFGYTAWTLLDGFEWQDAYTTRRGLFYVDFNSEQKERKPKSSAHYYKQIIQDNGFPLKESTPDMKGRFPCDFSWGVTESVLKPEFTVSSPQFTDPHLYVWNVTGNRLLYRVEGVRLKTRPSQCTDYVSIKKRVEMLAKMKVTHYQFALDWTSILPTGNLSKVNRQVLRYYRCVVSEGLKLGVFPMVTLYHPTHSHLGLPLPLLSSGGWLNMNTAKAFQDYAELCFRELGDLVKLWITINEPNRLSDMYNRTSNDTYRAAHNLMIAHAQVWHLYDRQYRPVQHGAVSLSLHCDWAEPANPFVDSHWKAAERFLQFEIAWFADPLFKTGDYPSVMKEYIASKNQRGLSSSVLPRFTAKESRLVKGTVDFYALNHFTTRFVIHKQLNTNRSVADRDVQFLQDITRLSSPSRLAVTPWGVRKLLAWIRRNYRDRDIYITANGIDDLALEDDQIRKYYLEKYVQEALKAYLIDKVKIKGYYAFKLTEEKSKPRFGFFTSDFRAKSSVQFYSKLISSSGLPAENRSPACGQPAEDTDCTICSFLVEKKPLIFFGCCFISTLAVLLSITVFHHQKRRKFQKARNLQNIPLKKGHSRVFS

- EC50 (pM), ELK1 luciferase reporter in L6 cells transfected with mouse FGFR4 and β-klotho: 38.3 pM
- Emax (fold potentiation), ELK1 luciferase reporter in L6 cells transfected with mouse FGFR4 and β-klotho: 1.85 fold potentiation
B1: M70 (FGF19 variant) (ligand)
chain: MRDSSPLVHYGWGDPIRLRHLYTSGPHGLSSCFLRIRADGVVDCARGQSAHSLLEIKAVALRTVAIKGVHSVRYLCMGADGKMQGLLQYSEEDCAFEEEIRPDGYNVYRSEKHRLPVSLSSAKQRQLYKNRGFLPLSHFLPMLPMVPEEPEDLRGHLESDMFSSPLETDSMDPFGLVTGLEAVRSPSFEK
